One assay has as its target T1, ALK6 ECD (Homo sapiens, UniProt O00238).
T1 chain: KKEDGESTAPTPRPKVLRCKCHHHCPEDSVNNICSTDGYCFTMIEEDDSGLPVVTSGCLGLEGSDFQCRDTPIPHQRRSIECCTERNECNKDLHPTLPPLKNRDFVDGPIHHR
Description: BLI. For orientation: BLI is a label-free optical method that tracks binding on a fibre tip over time.

Assay [1] has as its target T2, ALK1 ECD (Homo sapiens, UniProt P37023). Description: BLI.
In another assay the target is T3, ALK2/BMPR-II ECD (Homo sapiens, UniProt Q04771).
T3 chain 1: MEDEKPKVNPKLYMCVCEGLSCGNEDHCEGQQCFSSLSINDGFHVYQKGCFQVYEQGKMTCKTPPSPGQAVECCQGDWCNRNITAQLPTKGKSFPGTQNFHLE
T3 chain 2: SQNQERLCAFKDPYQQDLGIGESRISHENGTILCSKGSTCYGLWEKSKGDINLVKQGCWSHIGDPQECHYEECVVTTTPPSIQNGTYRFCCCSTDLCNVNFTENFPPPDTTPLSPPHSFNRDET
Description: BLI.

The target of another assay is T4, ALK2 ECD (Homo sapiens, UniProt Q04771).
T4 chain: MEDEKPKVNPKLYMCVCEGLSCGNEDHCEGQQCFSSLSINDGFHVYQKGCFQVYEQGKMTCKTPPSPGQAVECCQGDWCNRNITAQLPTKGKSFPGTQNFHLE
Description: BLI.

The target in the next assay is T5, ALK5 ECD (Homo sapiens, UniProt P36897).
T5 chain: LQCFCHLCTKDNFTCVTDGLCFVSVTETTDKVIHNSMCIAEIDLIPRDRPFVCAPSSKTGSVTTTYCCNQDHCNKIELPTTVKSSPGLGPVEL
Description: BLI.

Another assay concerns the target T6, BMPR-II ECD (Homo sapiens, UniProt Q13873).
T6 chain: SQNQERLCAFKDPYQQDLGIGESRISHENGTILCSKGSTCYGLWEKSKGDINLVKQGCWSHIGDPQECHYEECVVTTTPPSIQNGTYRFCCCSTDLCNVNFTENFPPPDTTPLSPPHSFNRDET
Nature of the assay: BLI.

For a further assay, the target named is ACTR-IIA ECD (Homo sapiens, UniProt P27037). Description: BLI.
Sequence of ACTR-IIA ECD (P27037 20-135): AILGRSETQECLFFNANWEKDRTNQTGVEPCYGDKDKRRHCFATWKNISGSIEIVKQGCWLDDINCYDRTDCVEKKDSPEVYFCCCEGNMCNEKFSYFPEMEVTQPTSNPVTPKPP
The target in a further assay is T7, ALK2/ACTR-IIB ECD (Homo sapiens, UniProt Q04771).
T7 chain 1: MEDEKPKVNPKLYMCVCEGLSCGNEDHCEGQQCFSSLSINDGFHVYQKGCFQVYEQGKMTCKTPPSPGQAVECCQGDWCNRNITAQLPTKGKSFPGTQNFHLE
T7 chain 2: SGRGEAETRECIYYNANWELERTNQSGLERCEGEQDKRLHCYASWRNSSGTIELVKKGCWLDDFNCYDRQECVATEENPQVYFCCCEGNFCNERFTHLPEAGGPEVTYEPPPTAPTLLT
Description: BLI.

Another assay deals with T8, ACTR-IIB ECD (Homo sapiens, UniProt Q13705).
T8 chain: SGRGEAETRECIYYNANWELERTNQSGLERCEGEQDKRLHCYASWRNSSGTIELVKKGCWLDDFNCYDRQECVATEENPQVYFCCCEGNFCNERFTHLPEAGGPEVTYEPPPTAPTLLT
Description: BLI.

The target of assay [2] is T2, ALK1 ECD. Nature of the assay: SPR. For orientation: SPR reads the build-up and loss of mass on a sensor chip optically.
In a further assay the target is T9, ALK3 ECD (Homo sapiens, UniProt P36894).
T9 chain: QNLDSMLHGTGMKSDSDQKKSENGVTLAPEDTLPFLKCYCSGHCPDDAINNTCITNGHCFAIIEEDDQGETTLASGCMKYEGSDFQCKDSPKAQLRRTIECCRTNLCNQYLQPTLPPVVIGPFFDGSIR
Description: BLI.

“And” between values parts separate entries of the source, which are not always exact repeats. Equal entries are not always repeated.

T2 sequence (P37023 22-118): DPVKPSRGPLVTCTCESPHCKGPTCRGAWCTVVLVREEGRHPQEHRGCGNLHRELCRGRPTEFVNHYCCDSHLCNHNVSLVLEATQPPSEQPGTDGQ

B1: BMP-4 (protein)
chain: SPKHHSQRARKKNKNCRRHSLYVDFSDVGWNDWIVAPPGYQAFYCHGDCPFPLADHLNSTNHAIVQTLVNSVNSSIPKACCVPTELSAISMLYLDEYDKVVLKNYQEMVVEGCGCR
With B1, the dissociation constant Kd (usually a measure of binding affinity in units of concentration) with ALK6 ECD is 3.1 nM; with ALK1 ECD [1] it was 55.4 nM; in the assay with ALK2/BMPR-II ECD, 55.8 nM and 90.7 nM; in the assay with ALK2 ECD it was 10.5 nM; with ALK5 ECD, 21.9 nM; in the assay with BMPR-II ECD, 56 nM. Further, the equilibrium dissociation constant (Kd) was 21.4 nM with ACTR-IIA ECD; 103 nM and 88.7 nM in the assay with ALK2/ACTR-IIB ECD; 26 nM with ACTR-IIB ECD.

B2: BMP-9 (protein)
chain: SAGAGSHCQKTSLRVNFEDIGWDSWIIAPKEYEAYECKGGCFFPLADDVTPTKHAIVQTLVHLKFPTKVGKACCVPTKLSPISVLYKDDMGVPTLKYHYEGMSVAECGCR
Consider B2, for which the Kd with ALK1 ECD [2] was determined as 0.0134 nM; with ALK1 ECD [1], 0.2 nM; with ALK5 ECD, 51 nM; with BMPR-II ECD, 0.8 nM; in the assay with ACTR-IIA ECD, 1.7 nM; with ACTR-IIB ECD, 1.4 nM.

B3: BMP-7 (protein)
chain: STGSKQRSQNRSKTPKNQEALRMANVAENSSSDQRQACKKHELYVSFRDLGWQDWIIAPEGYAAYYCEGECAFPLNSYMNATNHAIVQTLVHFINPETVPKPCCAPTQLNAISVLYFDDSSNVILKKYRNMVVRACGCH
As to B3, the dissociation constant (Kd) turned out to be 15 nM with ALK6 ECD; 23.1 nM with ALK1 ECD [1]; 22.6 nM in the assay with ALK5 ECD; 5.5 nM with BMPR-II ECD; 1.3 nM with ACTR-IIA ECD; 7.1 nM with ACTR-IIB ECD.

B4: BMP-2 (protein)
chain: QAKHKQRKRLKSSCKRHPLYVDFSDVGWNDWIVAPPGYHAFYCHGECPFPLADHLNSTNHAIVQTLVNSVNSKIPKACCVPTELSAISMLYLDENEKVVLKNYQDMVVEGCGCR
B4: the Kd was found to be 0.5 nM with ALK6 ECD; 13 nM in the assay with ALK1 ECD [1]; 0.21 nM in the assay with ALK3 ECD; 5.8 nM with ALK5 ECD; 5.4 nM in the assay with BMPR-II ECD.

The values are drawn from PMC7614001 (2022).
